Common to all, as to conditions: both partners purified
For test [1], the target named is T1, cysteine desulfurase IscS (E. coli, UniProt P0A6B7 1-404).
T1 construct: IscS, cysteine desulfurase of E. coli; Dimer by native MS (observed 91,035 Da, predicted 91,037 Da); An adduct of about +304 Da is put down to beta-mercaptoethanol hetero-disulfides; also called wild-type IscS; source: E. coli BL21(DE3), purified (Ni-NTA, TEV cleavage, gel filtration)
Kind of test: BLI; competition: biotinylated CyaY immobilised on streptavidin biosensors, exposed to 10 μM IscS at IscX 0-60 μM; 20 mM HEPES pH 7.5, 150 mM NaCl, 2 mM TCEP, 0.5 mg/mL BSA, 25°C; apparent Kd from the response reduction, 1:1 model. In general terms: Biolayer interferometry detects binding as a change in optical thickness at a sensor tip.

For test [2], the target named is T2, biotinylated IscS (E. coli, UniProt P0A6B7 1-404, biotin (site not stated)).
T2 construct: IscS, cysteine desulfurase of E. coli; Same protein as m1, biotinylated to hold it on streptavidin biosensors; also called immobilized IscS; source: E. coli BL21(DE3), purified (Ni-NTA, TEV cleavage, gel filtration), biotinylated
Put plainly: BLI; biotinylated IscS immobilised on streptavidin biosensors, IscX 0-50 μM; 20 mM HEPES pH 7.5, 150 mM NaCl, 2 mM TCEP, 0.5 mg/mL BSA, 25°C; apparent Kd, 1:1 model; data not shown.

For test [3], the target named is T3, IscU-IscS complex (immobilized IscS saturated with IscU) (E. coli, UniProt P0A6B7 1-404; P0ACD4 2-128, biotin (site not stated)).
T3 construct: IscS, cysteine desulfurase of E. coli; as the chain of m7; IscU of E. coli; as the chain of m4; also called IscS saturated by IscU; source: formed on the biosensor from purified E. coli-made proteins: immobilized IscS saturated by IscU (10 μM); copies: 2 +
Put plainly: BLI; IscS immobilised and saturated by IscU (10 μM), titrated with IscX 0-60 μM; apparent Kd, 1:1 model.

For test [4], the target named is T1, cysteine desulfurase IscS. Put plainly: native MS; ESI-MS under non-denaturing conditions; IscS 3 μM in 250 mM ammonium acetate pH 8, IscX at 0-16 IscX/IscS molar ratios, 5 min at room temperature; sequential binding model (DynaFit).

B1: biotinylated CyaY (natural protein, E. coli, UniProt P27838 1-106, looked up)
chain: MNDSEFHRLADQLWLTIEERLDDWDGDSDIDCEINGGVLTITFENGSKIIINRQEPLHQVWLATKQGGYHFDLKGDEWICDRSGETFWDLLEQAATQQAGETVSFR
modifications: biotin (site not stated)
notes: CyaY, frataxin ortholog of E. coli; Same protein as m3, biotinylated to hold it on streptavidin biosensors; also called immobilized CyaY; source: E. coli BL21(DE3), purified (Ni-NTA, TEV cleavage, gel filtration), biotinylated
As to B1, the binding result in test [1] is listed as “binds”.

B2: IscX (natural protein, E. coli, UniProt P0C0L9 1-66, looked up)
chain: MGLKWTDSREIGEALYDAYPDLDPKTVRFTDMHQWICDLEDFDDDPQASNEKILEAILLVWLDEAE
modifications: also: mixed disulfide with β-mercaptoethanol on majority of protein, most likely
notes: IscX (YfhJ) of E. coli; Predicted mass 7859 Da, observed 7935 Da; the predicted mass may include some; also called YfhJ; source: E. coli BL21(DE3), purified (Ni-NTA, TEV cleavage, gel filtration)
Take B2: in test [2], the Kd was determined as 8 ± 3 µM. Moreover, the Kd in test [3] came out at 8 ± 2 µM. In test [4], the “Kd of the first two IscX per IscS dimer (primary site)” value was 13.7 ± 0.4 µM; the “Kd of the third and fourth IscX per IscS dimer (secondary site)” value amounted to 170 ± 10 µM; the stoichiometry N (commonly the number of molecules, sites or subunits per partner or assembly) is no more than 4 IscX per IscS dimer. Also, the Kd in test [1] amounted to 6 ± 2 µM.

The record behind these values is PMC5801593 (Frontiers in Molecular Biosciences, 2017).
